From US20150267232A1, “IN VIVO AND IN VITRO CARBENE INSERTION AND NITRENE TRANSFER REACTIONS CATALYZED BY HEME ENZYMES” (California Institute of Technology, priority 2012, published 2015)

Experiments:
[1] = Small-scale anaerobic C—H amination with purified enzymes, azide 1; type: biochemical; conditions: benzosultam 3
Experimental: Activities are presented in TTN. […] Yields and enantioselectivies determined by HPLC analysis. * (S−R)/(S+R). nd=not determined.
Enzymes used as purified catalysts were expressed as previously described (Lewis, J. C. et al., Proc. Natl. Acad. Sci. U.S.A. 106, 16550-16555 (2009)), and were purified by anion-exchange chromatography (for holoenzymes) or Ni-NTA chromatography (for isolated heme domains). Concentrations of P450 or P411 enzymes were determined as previously reported (Omura, T. & Sato, R., J. Biol. Chem. 239, 2370-2378 (1964); Vatsis, K. P. et al., J. Inorg. Biochem. 91, 542-553 (2002)). Small-scale reactions (400 μL) were conducted in 2 mL crimp vials containing degassed buffer (0.1 M potassium phosphate pH 8.0), enzyme (0.1-0.5% catalyst loading) and oxygen depletion system (10× stock solution containing 14,000 U/mL catalase, 1,000 U/mL glucose oxidase dissolved in 0.1 M KPi pH 8.0). Enzyme (P450 or P411) solution and oxygen depletion mixture were added to the vial with a small stir bar before crimp-sealing. […] Reactions were stirred at room temperature for 24 h under positive argon pressure.
Small-scale reactions (400 μL) were conducted in 2 mL crimp vials (Agilent Technologies, San Diego, Calif.) containing buffer (0.1 M potassium phosphate pH 8.0), enzyme (0.1-0.5% catalyst loading) and oxygen depletion system (10× stock solution containing 14,000 U/mL catalase, 1,000 U/mL glucose oxidase dissolved in 0.1 M KPi pH 8.0). Enzyme (P450 or P411) solution and oxygen depletion mixture were added to the vial with a small stir bar before crimp-sealing. […] In the meantime, the headspace of the sealed 2 mL reaction vial with the P450 solution was made anaerobic by flushing argon over the protein solution (with no bubbling). The buffer/reductant/glucose solution (270 μL) was syringed into the reaction vial with continuous argon purge of the vial headspace. An arylsulfonyl azide solution in DMSO (10 μL, 80 mM) was added to the reaction vial via a glass syringe, and the reaction was left stirring for 24 h at room temperature under positive argon pressure. […] Reactions were quenched by adding 30 μL 3 M HCl under argon. To the vials were then added acetonitrile (430 uL) and internal standard (o-toluenesulfonamide 10 mM in 50% acetonitrile 50% water, 1 mM final concentration). This mixture was then transferred to a microcentrifuge tube, and centrifuged at 17,000×g for 10 minutes. A portion (20 μL) of the supernatant was then analyzed by HPLC. For LC-MS analysis, the quenched reaction mixture was extracted twice with ethyl acetate (2×350 μL), dried under a light argon stream and resuspended in 50% water-acetonitrile (100 μL). For chiral HPLC the reactions were extracted as above with ethyl acetate, dried and resuspended in DMSO (100 μL) and then C18 purified as described above. The C18 purified material was dried, and resuspended in acetonitrile, and then injected onto the chiral HPLC system for analysis. Sultam formation was quantified comparison of integrated peak areas of internal standard and sultam at 220 nm to a calibration curve made using synthetically produced sultam and internal standard.
Purified enzymes were screened for activity in small scale reactions (400 μL) under anaerobic conditions as described above. Reactions were carried out using 0.5% mol of enzyme (10 μM) with respect to the triethylsulfonyl azide substrate 1 (2 mM). Standard reaction conditions described above were employed. Diethyl benzosultam product 3 (FIG. 18) was analyzed and quantified by reversed-phase HPLC (see above).
Small-scale reactions (400 μL total volume) were set up and worked up. Control reactions were performed with both the holoenzyme (BM3 with covalently linked reductase domain) and the isolated heme domain. […] Reactions of the complete system with heme domain (CS heme) included 2 mM Na2S2O4 rather than NADPH unless otherwise indicated in the table. […]

[2] = P450BM3 compilation plate screen (GC, cyclopropane peaks); type: biochemical; conditions: for ee (cis): (R,S)-(S,R); for Absolute activity: sum of the area of the cyclopropane peaks over the area of the internal standard
[3] = chiral β-CDX GC, P450BM3 variants
[4] = diastereomeric excess = ([cis] − [trans])/([cis] + [trans]), P450BM3 variants

Row | Molecule | TTN ([1]; 0.1 mol % catalyst loading (2 μM), 2 mM azide 1, 2 mM NADPH) | % ee ([1]; 0.1 mol % catalyst loading, (S−R)/(S+R)) [%] | ee (cis) ([2]; chimeric P450s) | ee (cis) [2, 3] | de ([2]; ([cis] − [trans])/([cis] + [trans]), chimeric P450s) | de [2, 4] | Absolute activity ([2]; P450BM3 variants) | Absolute activity ([2]; chimeric P450s)
1 | ABC-CIS-A268T: BM3-CIS + C400S + A268T (9-10A TS + F87V, C400S) (protein, listed as Bacillus megaterium, cytochrome P450NADPH-P-450 reductase precursor, cytochrome P450 (BM3), CYP102A1) TIKEMPQPKTFGELKNLPLLNTDKPVQALMKIADELGEIFKFEAPGRVTRYLSSQRLIKEACDESRFDKNLSQALKFARDFAGDGLVTSWTHEKNWKKAHNILLPSFSQQAMKGYHAMMVDIAVQLVQKWERLNADEHIEVSEDMTRLTLDTIGLCGFNYRFNSFYRDQPHPFIISMVRALDEVMNKLQRANPDDPAYDENKRQFQEDIKVMNDLVDKIIADRKARGEQSDDLLTQMLNGKDPETGEPLDDGNIRYQIITFLIAGHETTSGLLSFALYFLVKNPHVLQKVAEEAARVLVDPVPSYKQVKQLKYVGMVLNEALRLWPTAPAFSLYAKEDTVLGGEYPLEKGDEVMVLIPQLHRDKTVWGDDVEEFRPERFENPSAIPQHAFKPFGNGQRASIGQQFALHEATLVLGMMLKHFDFEDHTNYELDIKETLTLKPKGFVVKAKSKKIPLGGIPSPSTEQSAKKVRKKAENAHNTPLLVLYGSNMGTAEGTARDLADIAMSKGFAPQVATLDSHAGNLPREGAVLIVTASYNGHPPDNAKQFVDWLDQASADEVKGVRYSVFGCGDKNWATTYQKVPAFIDETLAAKGAENIADRGEADASDDFEGTYEEWREHMWSDVAAYFNLDIENSEDNKSTLSLQFVDSAADMPLAKMHGAFSTNVVASKELQQPGSARSTRHLEIELPKEASYQEGDHLGVIPRNYEGIVNRVTARFGLDASQQIRLEAEEEKLAHLPLAKTVSVEELLQYVELQDPVTRTQLRAMAAKTVCPPHKVELEALLEKQAYKEQVLAKRLTMLELLEKYPACEMKFSEFIALLPSIRPRYYSISSSPRVDEKQASITVSVVSGEAWSGYGEYKGIASNYLAELQEGDTITCFISTPQSEFTLPKDPETPLIMVGPGTGVAPFRGFVQARKQLKEQGQSLGEAHLYFGCRSPHEDYLYQEELENAQSEGIITLHTAFSRMPNQPKTYVQHVMEQDGKKLIELLDQGAHFYICGDGSQMAPAVEATLMKSYADVHQVSEADARLWLQQLEEKGRYAKDVWAG | 82 | 47 | – | – | – | – | – | –
2 | WT F87A: P450BM3 variant: F87A (protein, listed as Bacillus megaterium, cytochrome P450NADPH-P-450 reductase precursor, cytochrome P450 (BM3), CYP102A1) TIKEMPQPKTFGELKNLPLLNTDKPVQALMKIADELGEIFKFEAPGRVTRYLSSQRLIKEACDESRFDKNLSQALKFVRDFAGDGLATSWTHEKNWKKAHNILLPSFSQQAMKGYHAMMVDIAVQLVQKWERLNADEHIEVPEDMTRLTLDTIGLCGFNYRFNSFYRDQPHPFITSMVRALDEAMNKLQRANPDDPAYDENKRQFQEDIKVMNDLVDKIIADRKASGEQSDDLLTHMLNGKDPETGEPLDDENIRYQIITFLIAGHETTSGLLSFALYFLVKNPHVLQKAAEEAARVLVDPVPSYKQVKQLKYVGMVLNEALRLWPTAPAFSLYAKEDTVLGGEYPLEKGDELMVLIPQLHRDKTIWGDDVEEFRPERFENPSAIPQHAFKPFGNGQRACIGQQFALHEATLVLGMMLKHFDFEDHTNYELDIKETLTLKPEGFVVKAKSKKIPLGGIPSPSTEQSAKKVRKKAENAHNTPLLVLYGSNMGTAEGTARDLADIAMSKGFAPQVATLDSHAGNLPREGAVLIVTASYNGHPPDNAKQFVDWLDQASADEVKGVRYSVFGCGDKNWATTYQKVPAFIDETLAAKGAENIADRGEADASDDFEGTYEEWREHMWSDVAAYFNLDIENSEDNKSTLSLQFVDSAADMPLAKMHGAFSTNVVASKELQQPGSARSTRHLEIELPKEASYQEGDHLGVIPRNYEGIVNRVTARFGLDASQQIRLEAEEEKLAHLPLAKTVSVEELLQYVELQDPVTRTQLRAMAAKTVCPPHKVELEALLEKQAYKEQVLAKRLTMLELLEKYPACEMKFSEFIALLPSIRPRYYSISSSPRVDEKQASITVSVVSGEAWSGYGEYKGIASNYLAELQEGDTITCFISTPQSEFTLPKDPETPLIMVGPGTGVAPFRGFVQARKQLKEQGQSLGEAHLYFGCRSPHEDYLYQEELENAQSEGIITLHTAFSRMPNQPKTYVQHVMEQDGKKLIELLDQGAHFYICGDGSQMAPAVEATLMKSYADVHQVSEADARLWLQQLEEKGRYAKDVWAG | – | – | 56 | 57 | −28 | −28 | 0.001704 | 0.001704
3 | WT T88L: P450BM3 variant: T88L (protein, listed as Bacillus megaterium, cytochrome P450NADPH-P-450 reductase precursor, cytochrome P450 (BM3), CYP102A1) TIKEMPQPKTFGELKNLPLLNTDKPVQALMKIADELGEIFKFEAPGRVTRYLSSQRLIKEACDESRFDKNLSQALKFVRDFAGDGLFLSWTHEKNWKKAHNILLPSFSQQAMKGYHAMMVDIAVQLVQKWERLNADEHIEVPEDMTRLTLDTIGLCGFNYRFNSFYRDQPHPFITSMVRALDEAMNKLQRANPDDPAYDENKRQFQEDIKVMNDLVDKIIADRKASGEQSDDLLTHMLNGKDPETGEPLDDENIRYQIITFLIAGHETTSGLLSFALYFLVKNPHVLQKAAEEAARVLVDPVPSYKQVKQLKYVGMVLNEALRLWPTAPAFSLYAKEDTVLGGEYPLEKGDELMVLIPQLHRDKTIWGDDVEEFRPERFENPSAIPQHAFKPFGNGQRACIGQQFALHEATLVLGMMLKHFDFEDHTNYELDIKETLTLKPEGFVVKAKSKKIPLGGIPSPSTEQSAKKVRKKAENAHNTPLLVLYGSNMGTAEGTARDLADIAMSKGFAPQVATLDSHAGNLPREGAVLIVTASYNGHPPDNAKQFVDWLDQASADEVKGVRYSVFGCGDKNWATTYQKVPAFIDETLAAKGAENIADRGEADASDDFEGTYEEWREHMWSDVAAYFNLDIENSEDNKSTLSLQFVDSAADMPLAKMHGAFSTNVVASKELQQPGSARSTRHLEIELPKEASYQEGDHLGVIPRNYEGIVNRVTARFGLDASQQIRLEAEEEKLAHLPLAKTVSVEELLQYVELQDPVTRTQLRAMAAKTVCPPHKVELEALLEKQAYKEQVLAKRLTMLELLEKYPACEMKFSEFIALLPSIRPRYYSISSSPRVDEKQASITVSVVSGEAWSGYGEYKGIASNYLAELQEGDTITCFISTPQSEFTLPKDPETPLIMVGPGTGVAPFRGFVQARKQLKEQGQSLGEAHLYFGCRSPHEDYLYQEELENAQSEGIITLHTAFSRMPNQPKTYVQHVMEQDGKKLIELLDQGAHFYICGDGSQMAPAVEATLMKSYADVHQVSEADARLWLQQLEEKGRYAKDVWAG | – | – | – | 23 | – | −78 | 0.004522 | –
